The values below are quoted from earlier work in paper PMC3043165.

A value given as a limit tells only on which side of the number the result lay.

In data set [1] the target is integrin αvβ5 (Homo sapiens) (UniProt P06756).
The target of data set [2] is integrin αIIbβ3 (Homo sapiens) (UniProt P08514).

Chain of integrin αvβ5 (Homo sapiens) (P06756 31-992, chain 1 of 2): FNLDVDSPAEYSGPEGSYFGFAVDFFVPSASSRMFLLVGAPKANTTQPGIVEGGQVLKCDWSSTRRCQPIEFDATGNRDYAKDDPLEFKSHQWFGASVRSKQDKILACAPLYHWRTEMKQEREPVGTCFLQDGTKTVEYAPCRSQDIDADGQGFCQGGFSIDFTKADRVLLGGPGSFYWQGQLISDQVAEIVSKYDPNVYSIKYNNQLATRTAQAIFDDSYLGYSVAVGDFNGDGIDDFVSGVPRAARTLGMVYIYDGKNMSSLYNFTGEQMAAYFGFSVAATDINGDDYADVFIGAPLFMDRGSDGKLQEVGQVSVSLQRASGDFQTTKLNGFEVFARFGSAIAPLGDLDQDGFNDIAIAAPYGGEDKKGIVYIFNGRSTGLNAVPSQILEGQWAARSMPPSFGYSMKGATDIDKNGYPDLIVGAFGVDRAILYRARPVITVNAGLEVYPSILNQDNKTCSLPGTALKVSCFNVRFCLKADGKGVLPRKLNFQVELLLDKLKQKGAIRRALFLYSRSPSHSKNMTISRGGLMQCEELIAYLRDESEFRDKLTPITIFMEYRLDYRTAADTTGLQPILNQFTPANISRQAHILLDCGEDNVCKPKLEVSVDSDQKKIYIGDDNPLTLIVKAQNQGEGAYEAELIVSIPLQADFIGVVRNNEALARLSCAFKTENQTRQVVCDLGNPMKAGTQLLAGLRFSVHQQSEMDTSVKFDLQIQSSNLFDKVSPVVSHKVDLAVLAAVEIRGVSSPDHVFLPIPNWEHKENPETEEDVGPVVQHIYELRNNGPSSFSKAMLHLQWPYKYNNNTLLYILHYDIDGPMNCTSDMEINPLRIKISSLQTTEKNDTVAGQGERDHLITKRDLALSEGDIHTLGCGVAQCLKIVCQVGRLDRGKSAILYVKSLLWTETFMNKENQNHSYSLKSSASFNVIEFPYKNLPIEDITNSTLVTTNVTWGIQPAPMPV
Chain of integrin αvβ5 (Homo sapiens) (P18084 24-719, chain 2 of 2, further chain): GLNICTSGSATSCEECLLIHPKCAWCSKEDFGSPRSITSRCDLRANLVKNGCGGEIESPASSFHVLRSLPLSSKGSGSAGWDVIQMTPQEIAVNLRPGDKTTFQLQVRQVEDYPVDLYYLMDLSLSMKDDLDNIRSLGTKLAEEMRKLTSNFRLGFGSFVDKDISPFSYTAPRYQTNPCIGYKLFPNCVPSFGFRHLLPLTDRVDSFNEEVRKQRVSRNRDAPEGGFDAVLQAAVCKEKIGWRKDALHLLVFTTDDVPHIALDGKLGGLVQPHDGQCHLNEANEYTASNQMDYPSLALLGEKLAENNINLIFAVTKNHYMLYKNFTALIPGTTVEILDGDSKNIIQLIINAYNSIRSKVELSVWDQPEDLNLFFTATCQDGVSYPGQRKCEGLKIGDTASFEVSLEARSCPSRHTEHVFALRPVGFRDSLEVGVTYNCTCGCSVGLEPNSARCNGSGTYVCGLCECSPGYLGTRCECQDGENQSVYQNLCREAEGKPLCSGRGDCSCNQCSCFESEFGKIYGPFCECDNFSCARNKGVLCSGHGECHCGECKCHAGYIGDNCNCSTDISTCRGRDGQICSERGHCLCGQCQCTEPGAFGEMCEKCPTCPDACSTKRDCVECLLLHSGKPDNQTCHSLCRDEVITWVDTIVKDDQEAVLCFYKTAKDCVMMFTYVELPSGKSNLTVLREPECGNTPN

The IC50 is the concentration at which inhibition is half-maximal. As to GRGDS peptide, in data set [1], the IC50 was greater than 5000 nM.
For c(RGDyK), in data set [2], the IC50 is 0.11 nM.
